Data taken from patent US20150132307A1.

Columns and labels:
Human IL17B (human) = Human IL17B (human) (UniProt Q9UHF5); assay: ELISA, coated IL-17 subtype, antibody 10 µg/ml, OD 405/492 nm
Human IL17C (human) = Human IL17C (human) (UniProt Q9P0M4); assay: as above
Human IL17E (human) = Human IL17E (human) (UniProt Q9H293); assay: as above
Human IL17F (human) = Human IL17F (human) (UniProt Q96PD4); assay: as above
[1] = target: recombinant human IL-17 (Peprotech #200-17) (human) (UniProt Q16552); assay: ELISA, coated IL-17 subtype 0.5 µg/ml, antibody 10 µg/ml, OD 405/492 nm
[2] = target: cynomolgous IL-17A (cynomolgous); assay: binding ELISA according to example 2; human and humanized IL17 antibodies compared (NVP-AIN-497 = 100)
[3] = target: recombinant human IL-17 (Peprotech #200-17) (human) (UniProt Q16552); assay: as above
[4] = target: recombinant human IL-17 (Peprotech #200-17) (human) (UniProt Q16552); assay: cell-based or functional assay
[5] = target: cynomolgous IL-17A (cynomolgous); assay: binding ELISA according to example 2; mouse IL17 antibodies compared (Mab 317 = 100)
[6] = target: recombinant human IL-17 (Peprotech #200-17) (human) (UniProt Q16552); assay: as above
Human IL17D (human) = Human IL17D (human) (UniProt Q8TAD2); assay: ELISA, coated IL-17 subtype, antibody 10 µg/ml, OD 405/492 nm
Sequence of Human IL17D (human) (Q8TAD2 16-202 limits assumed): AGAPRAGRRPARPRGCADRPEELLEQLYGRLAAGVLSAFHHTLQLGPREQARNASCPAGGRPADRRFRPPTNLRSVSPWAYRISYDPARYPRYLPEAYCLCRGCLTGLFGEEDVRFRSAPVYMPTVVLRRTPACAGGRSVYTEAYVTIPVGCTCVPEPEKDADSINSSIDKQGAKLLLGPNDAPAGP

Sequence of recombinant human IL-17 (Peprotech #200-17) (human) (Q16552 20-155 limits assumed): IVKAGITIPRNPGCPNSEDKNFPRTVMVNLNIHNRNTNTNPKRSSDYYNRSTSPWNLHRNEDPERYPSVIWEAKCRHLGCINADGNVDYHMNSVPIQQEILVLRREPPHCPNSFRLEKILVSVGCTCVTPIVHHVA
Sequence of Human IL17E (human) (Q9H293 33-177 limits assumed): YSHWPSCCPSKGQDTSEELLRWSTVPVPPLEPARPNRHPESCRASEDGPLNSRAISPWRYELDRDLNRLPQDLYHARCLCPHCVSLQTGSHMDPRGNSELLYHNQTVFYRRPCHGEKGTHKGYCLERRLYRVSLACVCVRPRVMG
Sequence of Human IL17C (human) (Q9P0M4 19-197 limits assumed): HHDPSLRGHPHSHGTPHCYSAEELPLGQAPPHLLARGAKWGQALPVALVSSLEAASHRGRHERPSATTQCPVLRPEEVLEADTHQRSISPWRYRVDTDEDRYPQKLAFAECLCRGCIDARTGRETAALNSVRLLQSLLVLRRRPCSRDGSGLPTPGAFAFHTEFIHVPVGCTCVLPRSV
Sequence of Human IL17B (human) (Q9UHF5 21-180 limits assumed): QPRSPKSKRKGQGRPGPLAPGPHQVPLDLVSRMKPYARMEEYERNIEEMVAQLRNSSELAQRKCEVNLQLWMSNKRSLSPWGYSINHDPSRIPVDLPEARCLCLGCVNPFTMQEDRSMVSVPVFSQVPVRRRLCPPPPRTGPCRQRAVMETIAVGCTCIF
Sequence of Human IL17F (human) (Q96PD4 31-163 limits assumed): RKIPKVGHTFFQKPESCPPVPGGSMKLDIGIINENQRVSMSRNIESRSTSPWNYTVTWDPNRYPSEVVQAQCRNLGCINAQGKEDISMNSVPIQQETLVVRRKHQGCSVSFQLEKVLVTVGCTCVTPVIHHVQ

| Substance | Binding (IL-17A binding set as 100) (% of IL-17A binding) (Human IL17B (human)) | Binding (IL-17A binding set as 100) (% of IL-17A binding) (Human IL17C (human)) | Binding (IL-17A binding set as 100) (% of IL-17A binding) (Human IL17E (human)) | Binding (IL-17A binding set as 100) (% of IL-17A binding) (Human IL17F (human)) | Binding (IL-17A binding set as 100) (% of IL-17A binding) [1] | Relative binding to cynomolgous IL-17A [2] [%] | Relative binding to human IL-17A [3] [%] | IL-6 Inhibition IC50 (nM) (CCD-25SK cells, IL-17A + TNF-alpha) [4] | Relative binding to cynomolgous IL-17A in % [5] [%] | Relative binding to human IL-17A in % [6] [%] | Binding (IL-17A binding set as 100) (% of IL-17A binding) (Human IL17D (human)) |
| --- | --- | --- | --- | --- | --- | --- | --- | --- | --- | --- | --- |
| NVP-AIN-497 (WO 2006/013107) (antibody) | 2 | 2 | 3 | 62 | 100 | 100 | 100 |  |  |  |  |
| MAB 317 of R&D Systems (antibody) |  |  |  |  | 100 |  |  | 2.8 |  |  |  |
| eBio64CAP17 (antibody) |  |  |  |  |  |  |  |  | 124 | 122 |  |
| Mab 16-7178-85 of eBioscience (antibody) | 7 | 97 | 5 | 5 | 100 |  |  |  |  |  | 6 |
